Reference: the Human Domainome abundance scans (Beltran et al. 2025)
± gives the uncertainty stated by the source.

B1: Activity-dependent neuroprotector homeobox protein, residues 770 to 810; numbered along this chain, Q9H2P0 (parent)
chain: FLTKYFNKQPYPTRREIEKLAASLWLWKSDIASHFSNKRKK
B2: POU domain, class 6, transcription factor 2, residues 609 to 663; numbered along this chain, P78424 (parent)
chain: KRRTSFTPQALEILNAHFEKNTHPSGQEMTEIAEKLNYDREVVRVWFCNKRQALK

Variants of: B1
Assay: abundance fitness (aPCA) (normalised: wild type 0, dead -1); higher = more abundant; growth selection in yeast, the domain comes from the species named
Settings: Homo sapiens

Variant	abundance fitness
RLTKYFNKQPYPTRREIEKLAASLWLWKSDIASHFSNKRKK	-1.12 ± 0.33
DLTKYFNKQPYPTRREIEKLAASLWLWKSDIASHFSNKRKK	-0.805 ± 0.27
TLTKYFNKQPYPTRREIEKLAASLWLWKSDIASHFSNKRKK	-0.158 ± 0.2
PLTKYFNKQPYPTRREIEKLAASLWLWKSDIASHFSNKRKK	-0.375 ± 0.29
MLTKYFNKQPYPTRREIEKLAASLWLWKSDIASHFSNKRKK	-0.176 ± 0.15
GLTKYFNKQPYPTRREIEKLAASLWLWKSDIASHFSNKRKK	-0.574 ± 0.2
NLTKYFNKQPYPTRREIEKLAASLWLWKSDIASHFSNKRKK	-0.142 ± 0.32
SLTKYFNKQPYPTRREIEKLAASLWLWKSDIASHFSNKRKK	-0.09 ± 0.25
KLTKYFNKQPYPTRREIEKLAASLWLWKSDIASHFSNKRKK	-0.36 ± 0.33
CLTKYFNKQPYPTRREIEKLAASLWLWKSDIASHFSNKRKK	-0.854 ± 0.15
LLTKYFNKQPYPTRREIEKLAASLWLWKSDIASHFSNKRKK	-1.24 ± 0.22
FFTKYFNKQPYPTRREIEKLAASLWLWKSDIASHFSNKRKK	0.098 ± 0.071
FHTKYFNKQPYPTRREIEKLAASLWLWKSDIASHFSNKRKK	-0.738 ± 0.17
FATKYFNKQPYPTRREIEKLAASLWLWKSDIASHFSNKRKK	-0.753 ± 0.076
FGTKYFNKQPYPTRREIEKLAASLWLWKSDIASHFSNKRKK	-0.812 ± 0.066
FKTKYFNKQPYPTRREIEKLAASLWLWKSDIASHFSNKRKK	-0.622 ± 0.3
FNTKYFNKQPYPTRREIEKLAASLWLWKSDIASHFSNKRKK	-0.555 ± 0.27
FPTKYFNKQPYPTRREIEKLAASLWLWKSDIASHFSNKRKK	-0.532 ± 0.24
FCTKYFNKQPYPTRREIEKLAASLWLWKSDIASHFSNKRKK	-0.571 ± 0.077
FRTKYFNKQPYPTRREIEKLAASLWLWKSDIASHFSNKRKK	-0.789 ± 0.074
FDTKYFNKQPYPTRREIEKLAASLWLWKSDIASHFSNKRKK	-0.822 ± 0.12
FETKYFNKQPYPTRREIEKLAASLWLWKSDIASHFSNKRKK	-1.06 ± 0.26
FQTKYFNKQPYPTRREIEKLAASLWLWKSDIASHFSNKRKK	-0.595 ± 0.11

Variants of: B2
Assay: as above
Settings: Homo sapiens

Variant	abundance fitness
KRRTSFTPQALEILNAHFEKNTHPSGQEMTEIAEKLNYDREVVRVWFCNKRSALK	-0.175 ± 0.08
KRRTSFTPQALEILNAHFEKNTHPSGQEMTEIAEKLNYDREVVRVWFCNKRDALK	-0.119 ± 0.12
KRRTSFTPQALEILNAHFEKNTHPSGQEMTEIAEKLNYDREVVRVWFCNKRVALK	-0.161 ± 0.094
KRRTSFTPQALEILNAHFEKNTHPSGQEMTEIAEKLNYDREVVRVWFCNKRFALK	-0.171 ± 0.13
KRRTSFTPQALEILNAHFEKNTHPSGQEMTEIAEKLNYDREVVRVWFCNKRGALK	-0.223 ± 0.1
KRRTSFTPQALEILNAHFEKNTHPSGQEMTEIAEKLNYDREVVRVWFCNKRWALK	-0.244 ± 0.1
KRRTSFTPQALEILNAHFEKNTHPSGQEMTEIAEKLNYDREVVRVWFCNKREALK	0.117 ± 0.18
KRRTSFTPQALEILNAHFEKNTHPSGQEMTEIAEKLNYDREVVRVWFCNKRMALK	-0.188 ± 0.12
KRRTSFTPQALEILNAHFEKNTHPSGQEMTEIAEKLNYDREVVRVWFCNKRYALK	-0.339 ± 0.15
KRRTSFTPQALEILNAHFEKNTHPSGQEMTEIAEKLNYDREVVRVWFCNKRNALK	0.014 ± 0.17
KRRTSFTPQALEILNAHFEKNTHPSGQEMTEIAEKLNYDREVVRVWFCNKRHALK	0.022 ± 0.14
KRRTSFTPQALEILNAHFEKNTHPSGQEMTEIAEKLNYDREVVRVWFCNKRKALK	0.018 ± 0.11
KRRTSFTPQALEILNAHFEKNTHPSGQEMTEIAEKLNYDREVVRVWFCNKRIALK	0.045 ± 0.14
KRRTSFTPQALEILNAHFEKNTHPSGQEMTEIAEKLNYDREVVRVWFCNKRCALK	-0.126 ± 0.15
KRRTSFTPQALEILNAHFEKNTHPSGQEMTEIAEKLNYDREVVRVWFCNKRLALK	-0.005 ± 0.071
KRRTSFTPQALEILNAHFEKNTHPSGQEMTEIAEKLNYDREVVRVWFCNKRTALK	-0.059 ± 0.12
KRRTSFTPQALEILNAHFEKNTHPSGQEMTEIAEKLNYDREVVRVWFCNKRPALK	-0.218 ± 0.098
KRRTSFTPQALEILNAHFEKNTHPSGQEMTEIAEKLNYDREVVRVWFCNKRAALK	-0.006 ± 0.1
KRRTSFTPQALEILNAHFEKNTHPSGQEMTEIAEKLNYDREVVRVWFCNKRQAKK	-0.159 ± 0.16
KRRTSFTPQALEILNAHFEKNTHPSGQEMTEIAEKLNYDREVVRVWFCNKRQATK	-0.217 ± 0.22
KRRTSFTPQALEILNAHFEKNTHPSGQEMTEIAEKLNYDREVVRVWFCNKRQARK	-0.103 ± 0.12
KRRTSFTPQALEILNAHFEKNTHPSGQEMTEIAEKLNYDREVVRVWFCNKRQACK	-0.258 ± 0.36
KRRTSFTPQALEILNAHFEKNTHPSGQEMTEIAEKLNYDREVVRVWFCNKRQAHK	-0.159 ± 0.22
KRRTSFTPQALEILNAHFEKNTHPSGQEMTEIAEKLNYDREVVRVWFCNKRQADK	-0.182 ± 0.31
KRRTSFTPQALEILNAHFEKNTHPSGQEMTEIAEKLNYDREVVRVWFCNKRQAMK	-0.106 ± 0.19
KRRTSFTPQALEILNAHFEKNTHPSGQEMTEIAEKLNYDREVVRVWFCNKRQAAK	-0.002 ± 0.14

Variant	abundance fitness
KRRTSFTPQALEILNAHFEKNTHPSGQEMTEIAEKLNYDREVVRVWFCNKRQAIK	-0.242 ± 0.25
KRRTSFTPQALEILNAHFEKNTHPSGQEMTEIAEKLNYDREVVRVWFCNKRQAVK	-0.101 ± 0.12
KRRTSFTPQALEILNAHFEKNTHPSGQEMTEIAEKLNYDREVVRVWFCNKRQAQK	-0.175 ± 0.34
KRRTSFTPQALEILNAHFEKNTHPSGQEMTEIAEKLNYDREVVRVWFCNKRQAPK	0.042 ± 0.17
KRRTSFTPQALEILNAHFEKNTHPSGQEMTEIAEKLNYDREVVRVWFCNKRQAYK	-0.417 ± 0.47
KRRTSFTPQALEILNAHFEKNTHPSGQEMTEIAEKLNYDREVVRVWFCNKRQAFK	-0.199 ± 0.12
KRRTSFTPQALEILNAHFEKNTHPSGQEMTEIAEKLNYDREVVRVWFCNKRQASK	-0.065 ± 0.1
KRRTSFTPQALEILNAHFEKNTHPSGQEMTEIAEKLNYDREVVRVWFCNKRQAEK	-0.133 ± 0.13
KRRTSFTPQALEILNAHFEKNTHPSGQEMTEIAEKLNYDREVVRVWFCNKRQALN	-0.186 ± 0.27
KRRTSFTPQALEILNAHFEKNTHPSGQEMTEIAEKLNYDREVVRVWFCNKRQALG	-0.226 ± 0.42
KRRTSFTPQALEILNAHFEKNTHPSGQEMTEIAEKLNYDREVVRVWFCNKRQALR	0.001 ± 0.31
KRRTSFTPQALEILNAHFEKNTHPSGQEMTEIAEKLNYDREVVRVWFCNKRQALV	-0.304 ± 0.5
KRRTSFTPQALEILNAHFEKNTHPSGQEMTEIAEKLNYDREVVRVWFCNKKQALK	-0.026 ± 0.14
KRRTSFTPQALEILNAHFEKNTHPSGQEMTEIAEKLNYDREVVRVWFCNKEQALK	-0.337 ± 0.15
KRRTSFTPQALEILNAHFEKNTHPSGQEMTEIAEKLNYDREVVRVWFCNKQQALK	-0.031 ± 0.16
KRRTSFTPQALEILNAHFEKNTHPSGQEMTEIAEKLNYDREVVRVWFCNKVQALK	-0.165 ± 0.094
KRRTSFTPQALEILNAHFEKNTHPSGQEMTEIAEKLNYDREVVRVWFCNKAQALK	-0.094 ± 0.11
KRRTSFTPQALEILNAHFEKNTHPSGQEMTEIAEKLNYDREVVRVWFCNKWQALK	-0.295 ± 0.12
KRRTSFTPQALEILNAHFEKNTHPSGQEMTEIAEKLNYDREVVRVWFCNKPQALK	-0.636 ± 0.15
KRRTSFTPQALEILNAHFEKNTHPSGQEMTEIAEKLNYDREVVRVWFCNKLQALK	0.011 ± 0.091
KRRTSFTPQALEILNAHFEKNTHPSGQEMTEIAEKLNYDREVVRVWFCNKYQALK	-0.097 ± 0.13
KRRTSFTPQALEILNAHFEKNTHPSGQEMTEIAEKLNYDREVVRVWFCNKHQALK	-0.385 ± 0.18
KRRTSFTPQALEILNAHFEKNTHPSGQEMTEIAEKLNYDREVVRVWFCNKDQALK	-0.457 ± 0.21
KRRTSFTPQALEILNAHFEKNTHPSGQEMTEIAEKLNYDREVVRVWFCNKSQALK	-0.174 ± 0.098
KRRTSFTPQALEILNAHFEKNTHPSGQEMTEIAEKLNYDREVVRVWFCNKTQALK	-0.243 ± 0.16
KRRTSFTPQALEILNAHFEKNTHPSGQEMTEIAEKLNYDREVVRVWFCNKFQALK	-0.331 ± 0.14

Variant	abundance fitness
KRRTSFTPQALEILNAHFEKNTHPSGQEMTEIAEKLNYDREVVRVWFCNKCQALK	-0.316 ± 0.15
KRRTSFTPQALEILNAHFEKNTHPSGQEMTEIAEKLNYDREVVRVWFCNKMQALK	-0.377 ± 0.2
KRRTSFTPQALEILNAHFEKNTHPSGQEMTEIAEKLNYDREVVRVWFCNKIQALK	-0.226 ± 0.17
KRRTSFTPQALEILNAHFEKNTHPSGQEMTEIAEKLNYDREVVRVWFCNKNQALK	-0.074 ± 0.19
KRRTSFTPQALEILNAHFEKNTHPSGQEMTEIAEKLNYDREVVRVWFCNKRQPLK	-0.392 ± 0.12
KRRTSFTPQALEILNAHFEKNTHPSGQEMTEIAEKLNYDREVVRVWFCNKRQWLK	-0.089 ± 0.14
KRRTSFTPQALEILNAHFEKNTHPSGQEMTEIAEKLNYDREVVRVWFCNKRQRLK	-0.194 ± 0.096
KRRTSFTPQALEILNAHFEKNTHPSGQEMTEIAEKLNYDREVVRVWFCNKRQYLK	-0.018 ± 0.21
KRRTSFTPQALEILNAHFEKNTHPSGQEMTEIAEKLNYDREVVRVWFCNKRQLLK	-0.086 ± 0.098
KRRTSFTPQALEILNAHFEKNTHPSGQEMTEIAEKLNYDREVVRVWFCNKRQILK	-0.11 ± 0.14
KRRTSFTPQALEILNAHFEKNTHPSGQEMTEIAEKLNYDREVVRVWFCNKRQELK	-0.105 ± 0.27
KRRTSFTPQALEILNAHFEKNTHPSGQEMTEIAEKLNYDREVVRVWFCNKRQFLK	-0.267 ± 0.16
KRRTSFTPQALEILNAHFEKNTHPSGQEMTEIAEKLNYDREVVRVWFCNKRQCLK	-0.215 ± 0.12
KRRTSFTPQALEILNAHFEKNTHPSGQEMTEIAEKLNYDREVVRVWFCNKRQNLK	0.046 ± 0.31
KRRTSFTPQALEILNAHFEKNTHPSGQEMTEIAEKLNYDREVVRVWFCNKRQHLK	0.012 ± 0.24
KRRTSFTPQALEILNAHFEKNTHPSGQEMTEIAEKLNYDREVVRVWFCNKRQQLK	0.042 ± 0.13
KRRTSFTPQALEILNAHFEKNTHPSGQEMTEIAEKLNYDREVVRVWFCNKRQVLK	-0.2 ± 0.13
KRRTSFTPQALEILNAHFEKNTHPSGQEMTEIAEKLNYDREVVRVWFCNKRQSLK	0.005 ± 0.099
KRRTSFTPQALEILNAHFEKNTHPSGQEMTEIAEKLNYDREVVRVWFCNKRQMLK	0.034 ± 0.19
KRRTSFTPQALEILNAHFEKNTHPSGQEMTEIAEKLNYDREVVRVWFCNKRQKLK	-0.167 ± 0.27
KRRTSFTPQALEILNAHFEKNTHPSGQEMTEIAEKLNYDREVVRVWFCNKRQTLK	-0.157 ± 0.13
KRRTSFTPQALEILNAHFEKNTHPSGQEMTEIAEKLNYDREVVRVWFCNSRQALK	-0.21 ± 0.088
KRRTSFTPQALEILNAHFEKNTHPSGQEMTEIAEKLNYDREVVRVWFCNVRQALK	-0.638 ± 0.077
KRRTSFTPQALEILNAHFEKNTHPSGQEMTEIAEKLNYDREVVRVWFCNTRQALK	-0.201 ± 0.12
KRRTSFTPQALEILNAHFEKNTHPSGQEMTEIAEKLNYDREVVRVWFCNYRQALK	-1.01 ± 0.3
KRRTSFTPQALEILNAHFEKNTHPSGQEMTEIAEKLNYDREVVRVWFCNWRQALK	-0.836 ± 0.15
